# Source: patent US20180128830A1, “DETECTION OF HUMAN CYTOMEGALOVIRUS IN BREAST CANCER” (priority 2015, published 2018)
# B1: IFNγ: purified recombinant interferon-gamma from R&D Systems (protein, UniProt P01579 24-161, looked up)
# Interferon gamma: QDPYVKEAENLKKYFNAGHSDVADNGTLFLGILKNWKEESDRKIMQSQIVSFYFKLFKNFKDDQSIQKSVETIKEDMNVKFFNSNKKKRDDFEKLTNYSVTDLNVQRKAIHELIQVMAELSPAAKTGKRKRSQMLFRG
# How the values were obtained:
# MDA-MB-231 cells [1] = assay: Apoptosis, Annexin V-FITC flow cytometry; format: cell-based, human; conditions: 100 μM etoposide, 48 hrs
# Procedure: (§1) Cells were seeded into 96-well dishes at a density of 1×10^4 cell per well in complete medium with varying doses of cmvIL-10, and then cell viability measured at the indicated time points using the Cell Titer Glo Assay kit according to manufacturer's instructions (Promega). DNA synthesis was measured in cells prepared in the same way using the BrdU Cell Proliferation ELISA Kit (Roche, Basel, Switzerland). For experiments using inhibitors, cells were cultivated in 96-well dishes as above with a final concentration of 10 μM inhibitor and BrdU incorporation evaluated after 72 hrs. For cell counts, cells were seeded into 6-well plates at a density of 2×10^5 cells per well, harvested via trypsinization, and counted using a hemacytometer at the indicated time points. The TACS Annexin V-FITC Detection Kit (Trevigen, Gaithersburg, Md.) was used to stain cells harvested from 70% confluent T75 flasks that had been treated with 100 μM etoposide for 48 hrs in the presence or absence of 100 ng/ml cmvIL-10. Cells were then analyzed via flow cytometry to detect fluorescence. For viability assays, Cell Titer Glo reagent was utilized to quantify cells that had been seeded into 96-well dishes at a density of 1×10^4 cell per well in complete medium with varying doses of etoposide in the presence or absence of 100 ng/ml cmvIL-10 as indicated
# HEK293 cells = assay: Transwell migration toward CXCL12; format: cell-based, human; conditions: 4 hours, 5.0 μm filter
# Procedure: Transwell migration assays were performed by suspending cells at a density of 5×10^4 cells/ml in migration media (MEM or RPMI […] media plus 0.5% FBS). A total of 75 μl of cells was placed onto the upper chamber of a 96-well transwell system with 5.0 μm pores (Corning-Costar, Corning, N.Y.). The lower chamber contained 235 μl of migration media with CXCL12 plus or minus cmvIL-10 as indicated. Plates were incubated for four hours at 37° C., and then cells that traversed through the filter into the lower chamber were quantified via the addition of CellTitre-Glo reagent (Promega, Madison, Wis.) according to manufacturer's instructions.
# CXCR4 = biological target: T1, CXCR4 (Homo sapiens, UniProt P61073); assay: Calcium flux assay in HEK293 cells; format: cell-based; conditions: CXCL12 0.1 μg/ml alone
# T1 construct: HEK293 cells, which endogenously express both CXCR4 and IL-10R; endogenous in cells; host or cells: HEK293
# Procedure: Calcium flux assays were performed as described (Arnolds K L, et al. Virology 439:122-131.). Briefly, cells were resuspended in 2 mls calcium assay buffer (RPMI with 25 mM of HEPES) at a density of 5×10^5 cells/ml per sample. Each sample was labeled with 2 μl of Fluo-4AM (Invitrogen, Grand Island, N.Y.), wrapped in foil, at 37° C. for 30 minutes with agitation at 10-minute intervals. Following incubation, each sample was pelleted, resuspended in calcium assay buffer, and transferred into an eppendorf tube for flow cytometry using the BD C6 Accuri. Fluorescence intensity of each sample was measured for 20 seconds to establish baseline, then stimulus (CXCL12, in the presence or absence of cmvIL-10, as indicated) was added via micropipetting directly into the sample while fluorescence intensity was measured. Kinetic fluorescence intensity analysis was performed with FlowJo software v9.4.9 (FlowJo, Ashland, Oreg.). Purified recombinant cmvIL-10 was purchased from R&D Systems (Minneapolis, Minn.) and purified recombinant CXCL12 was purchased from Peprotech (Rocky Hill, N.J.). For each calcium flux assay, ionomycin (Sigma) was a positive control for Fluo-4AM loading and PBS served as a negative control for the addition of stimulus.
# MDA-MB-231 cells [2] = assay: DNA synthesis, BrdU Cell Proliferation ELISA; format: cell-based, human; conditions: 10 ng/ml of each cytokine, 72 hrs
# Procedure: as §1
# Stat3 = assay: Western blot for Stat3 phosphorylation in MDA-MB-231 cells; format: cell-based, human; conditions: 100 ng/ml, 15 min
# Procedure: (§2) For western blotting, cells were treated with 100 ng/ml cmvIL-10, hIL-10, IFNγ or PBS for 15 min, then harvested into cell lysis buffer (150 mM NaCl, 20 mM HEPES, 0.5% Triton-X-100, 1 mM NaOV4, 1 mM EDTA, 0.1% NaN3). Lysates were clarified, proteins were separated via SDS-PAGE, and then transferred to a nitrocellulose membrane. Then membrane was incubated in blocking solution (5% milk+1×TBS-T) for 1 hr, then probed with primary antibody at a 1:1000 dilution (total Stat3 or pStat3, total Stat1 or pStat1) in blocking solution overnight at 4° C. After washing, the membranes were incubated with a 1:2000 dilution of appropriate AP-conjugated secondary antibody and bands were detected using Western Blue stabilized AP substrate (Promega, Madison, Wis.). For analysis of secreted proteins, supernatants were collected at various time points, analyzed by SDS-PAGE and then immunoblotted as above for cmvIL-10, hIL-10, or serpin E1/PAI.
# Stat1 = assay: Western blot for Stat1 phosphorylation in MDA-MB-231 cells; format: cell-based, human; conditions: 100 ng/ml, 15 min
# Procedure: as §2
# T1 sequence (P61073 whole entry): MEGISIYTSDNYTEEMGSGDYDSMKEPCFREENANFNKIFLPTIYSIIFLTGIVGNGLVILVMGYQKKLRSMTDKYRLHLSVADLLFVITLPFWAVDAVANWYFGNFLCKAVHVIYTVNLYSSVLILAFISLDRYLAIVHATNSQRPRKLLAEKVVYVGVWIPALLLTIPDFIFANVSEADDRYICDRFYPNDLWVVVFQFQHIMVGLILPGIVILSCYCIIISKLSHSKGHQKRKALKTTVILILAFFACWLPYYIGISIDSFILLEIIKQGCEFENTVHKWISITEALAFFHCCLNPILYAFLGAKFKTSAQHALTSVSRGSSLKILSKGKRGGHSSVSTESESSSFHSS
molecule,measurement,setting,value
"COc1cc([C@@H]2c3cc4c(cc3[C@@H](O[C@@H]3O[C@@H]5CO[C@@H](C)O[C@H]5[C@H](O)[C@H]3O)[C@H]3COC(=O)[C@H]23)OCO4)cc(OC)c1O [etoposide, reference compound]",cells stained positive for Annexin V,MDA-MB-231 cells [1],30.9%
CXCL12: purified recombinant CXCL12 chemokine from Peprotech,CXCL12 dose giving maximal migration,HEK293 cells,0.1 ng/mL
same,calcium mobilization (fluorescence),CXCR4,rapid but transient increase in fluorescence
IL-6: purified recombinant IL-6 from R&D Systems,cell proliferation (BrdU incorporation),MDA-MB-231 cells [2],inhibited cell growth
B1,83 kD band of phosphorylated Stat3 (pStat3),Stat3,not
same,cell proliferation (BrdU incorporation),MDA-MB-231 cells [2],inhibited cell growth
same,Stat1 phosphorylation,Stat1,phosphorylated in response to IFNγ treatment only
